Results from the RNAGym collection of RNA variant scans (doi:10.1073/pnas.2313332121).

B1: TPR t1 (parent)
chain: GACCAAUCUGCCCUCAGAGCUCGAGAACAUCUUCGGAUGCAGAGGAGGCAGGCUUCGGUGGCGCGAUAGCGCCAACGUCCUCAACCUCCAAUGCAUCCCACCACAUGAUGAUGCCUGAAGAGCCUUGGUUUUUUG

Variants of: B1
Assay: polymerase ribozyme fitness, log enrichment relative to wild type (log ratio); higher = more active; in vitro selection for triplet polymerase activity
Procedure, shortened: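 Each subunit of a heterodimeric triplet polymerase ribozyme was represented by a PCR-built, transcribed mutant library that underwent triplicate single-round in vitro selection with frozen incubation at −7 °C. Extended constructs were recovered by gel excision, streptavidin-bead capture and RT-PCR, and Illumina sequencing of input and output libraries kept genotypes with ≥10 input reads and ≥1 read per output. Fitness is the logarithm of genotype enrichment relative to wild-type enrichment, from inverse-variance-weighted replicate averages, with a logarithm base of 2.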

Point of comparison: U14A G61U U81A C97U, “polymerase ribozyme fitness (log ratio)” value -3.36. Against it:
- C72U C86U G107U G113U — lower, -6.11
- A46U G117A U133G — higher, -2.73
- G17A G39U C49G U78C G117U — lower, -5.4
- U38A G113C — higher, -2.81
- A37C A46G G61U C64U — lower, -5.42
- G42A G45U C82U C89U A90U A118G — higher, -1.67
- C11A G71A G77A C82G — lower, -3.86
- C89A C124U — higher, 0.618
- U87A G113A — higher, -1.76
- A6C G10A C13U G36U G51U G77C A90C G120U — lower, -4.97
- A68G G113U — lower, -4.53
- G48C C85U G117U — within 0.2 log units, -3.32
- U7C C28U C49U A50C G120A G122A — higher, -2.33
- C12A A41G G61U G117C G135C — lower, -4.3
- U54G C82A A91C C115G — lower, -4.39
- C15A C73G G117A G127U — lower, -4.62
- C49A U112A G127C — higher, -0.179
- U14A U54A C56U U130G — within 0.2 log units, -3.42
- G61A C88U A100U G120A — higher, -0.447
- C22G U32G C70G C124A — lower, -5.41
- U38A G42A — higher, -2.86
- G61U C86G — higher, -1.55
- A2G A27U C73G C79G C104U — lower, -6.8
- C34A C40U G48C C114U G120C — lower, -3.6
- G45U C64U G77U C79U C114G — lower, -4.61
- C13G C49G — higher, -2.28
- C12A C40U C56A U96A G117A — lower, -5.83
- G42U G61C — lower, -3.59
- A2U A5G C12U U112G — higher, -1.79
- U112C C124A — higher, 0.693
- C3U U78C A105C C124U — higher, -1.78
- C102G A111C A118C U129C — lower, -5.54
- C56G C94G — higher, -1.87
- A43U G47U C72U U92A C104G C114G — lower, -7.84
- A46U A91G C123G — higher, -1.65
- A41C C70A A118U — higher, -2.8
- U106A U132A — higher, -0.65
- A5C C12G C49A C56A A83C — higher, -1.46
- G44U G107A — lower, -6.9
- C20A U59C — higher, -2.71
- C73G C115U — higher, -1.97
- G52C G69A C114U — lower, -5.1
- A18C G45A C53U — lower, -4.6
- C8G U21A U38G C76U C88A U112G A121C — lower, -4.14
- G63C C114U A118C — lower, -3.66
- G19U G120U — higher, -2.46
- C13A A29G C73G C79U U125G — lower, -4.63
- C11U U21C G120U — higher, 0.267
- C20U A24U C56U — lower, -6.92
- C8U U9G A37G G117C — higher, -0.0473
- G93C A121U U133G — higher, 1.15
- A6C A41G C70U G117U — lower, -7.14
- A43G C56G C82A A84C C114U — higher, -3.15
- U106C C123G — higher, 0.936
- A6C A18U G52C C79U C89U C101U — higher, -2.96
- C3A G10A C13A G36U C70A U129C — lower, -5.83
- A105C — higher, -2.22
- G52U G61C G122A U125G — higher, -1.37
- C28U C49U — within 0.2 log units, -3.27
- U7A C11A C40U G93C A119U G122U — higher, 0.441
- C12A C20A C64A C88U U116C — lower, -6.74
- A50U U116A — lower, -4.25
- C8G G19U G48A A50U U54G U96A C114A — higher, 0.218
- A5C G71A U132A — higher, -1.18
- A16U A27U G61A — lower, -4.42
- C11U C13A U78A — higher, -0.472
- C11A G42U G61U C114G U130A U132G — lower, -4.29
- A26C A83C — lower, -5.16
- C79A C88U C101U — higher, -0.735
- U21A G42C — higher, -1.94
- C53A U78C G113U — higher, -3.16
- G44U A68G C85A — lower, -5.43
- A100U G113A — higher, -1.88
- U7A A103U — lower, -4.28
- C56A U67A — lower, -6.26
- C56U U92C — higher, -0.619
- G61A A121G — higher, 1.21
- C12U G61U U109G G120U — lower, -4.29
- A2C C4U G36U C73A C104U — higher, -2.65
- G93C C114G — lower, -4.17
- G45U C123U G127U — higher, -1.39
- G42U C102A — lower, -5.37
